Results as given in PMC11467045, “The hGID^GID4 E3 ubiquitin ligase complex targets ARHGAP11A to regulate cell migration” (Life Science Alliance, 2024).
Blank lines part the entries; values can stand above or below the binder they belong to. Where no end group is shown, it is not given here.

Experiments:
GID4^Δ1–115 [1] = target: T1, GID4^Δ1–115 (human, UniProt Q8IVV7 116-300); assay: fluorescence polarisation; competition: 20 μM GID4^Δ1–115 and 20 nM PGLWKS-TAMRA, 10 min with twofold dilutions of unlabeled peptides in FP buffer; log(inhibitor) versus response, variable slope; settings: both partners purified
T1 construct: also called recombinant GID4 lacking its N-terminal domain; source: E. coli Rosetta 2(DE3)pLysS, purified (Strep-Tactin, Ulp1 cleavage, size-exclusion chromatography); not shown: 2xStrepII, N-terminal, cleaved; Smt3, N-terminal, cleaved
T1 sequence (looked up): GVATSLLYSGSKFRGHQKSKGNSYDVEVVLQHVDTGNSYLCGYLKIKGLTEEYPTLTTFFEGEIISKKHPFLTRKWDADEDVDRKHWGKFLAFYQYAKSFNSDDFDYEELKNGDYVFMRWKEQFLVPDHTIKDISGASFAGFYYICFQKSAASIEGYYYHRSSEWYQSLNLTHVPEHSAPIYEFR

GID4^Δ1–115 [2] = target: T1, GID4^Δ1–115; assay: fluorescence polarisation; saturation binding: 20 nM TAMRA-labeled peptide with indicated GID4^Δ1–115 concentrations, 10 min, FP buffer (20 mM MOPS pH 7.6, 100 mM NaCl, 25 mM D-trehalose, 1% glycerol, 0.01% Triton X-100, 0.1 g/l BSA); one site-specific binding model; settings: both partners purified

IC50 (GID4^Δ1–115 [1]): 30.3 µM
Binder: PGLWKS (control degron peptide, unlabeled) [unlabeled PGLWKS]

IC50 (GID4^Δ1–115 [1]): 83.4 µM
B1: PGKLRSDAG (peptide)
peptide: PGKLRSDAG
notes: amino terminus of DDX21 (Owens et al, 2024), without the initiator methionine; also called N-terminal peptide of DDX21

Kd (GID4^Δ1–115 [2]): 2.4 µM
B2: PGLWKS-TAMRA (peptide)
peptide: PGLWKS-{TAMRA}
notes: control degron peptide (Dong et al, 2018); also called TAMRA-labeled control peptide PGLWKS
